For the test, the target named is CGRP1 receptor (CRLR/RAMP1 complex) of human neuroblastoma SK-N-MC cells (human, UniProt Q16602 23-461; O60894 27-148). The experiment in a line: cell-based or functional assay.

Bridge positions count the residues as written; N and C are the ends. Square brackets hold non-standard residues; d marks the D form. hArg = N=C(N)NCCCC[C@H](N)C(=O)O; Cit = NC(=O)NCCC[C@H](N)C(=O)O; Aze = O=C(O)[C@@H]1CCN1

Sequence of CGRP1 receptor (CRLR/RAMP1 complex) of human neuroblastoma SK-N-MC cells (Q16602 23-461, chain 1 of 2): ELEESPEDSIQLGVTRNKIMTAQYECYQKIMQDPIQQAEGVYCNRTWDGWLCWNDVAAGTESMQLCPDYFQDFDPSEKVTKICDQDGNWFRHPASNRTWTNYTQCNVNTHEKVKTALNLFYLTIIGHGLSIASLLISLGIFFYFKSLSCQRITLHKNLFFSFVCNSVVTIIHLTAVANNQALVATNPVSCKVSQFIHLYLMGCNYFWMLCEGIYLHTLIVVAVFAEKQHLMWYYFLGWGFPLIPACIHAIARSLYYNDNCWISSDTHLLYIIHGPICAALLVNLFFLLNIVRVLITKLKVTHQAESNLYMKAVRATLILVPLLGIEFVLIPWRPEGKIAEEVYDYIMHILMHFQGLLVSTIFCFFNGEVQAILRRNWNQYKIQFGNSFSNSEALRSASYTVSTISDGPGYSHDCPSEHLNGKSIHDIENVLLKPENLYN
Sequence of CGRP1 receptor (CRLR/RAMP1 complex) of human neuroblastoma SK-N-MC cells (O60894 27-148, chain 2 of 2): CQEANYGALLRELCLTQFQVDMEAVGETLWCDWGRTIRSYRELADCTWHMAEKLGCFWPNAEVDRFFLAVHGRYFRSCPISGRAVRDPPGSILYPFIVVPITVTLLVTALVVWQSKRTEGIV

Turning to Ac-WVEHRLKGLLS[Cit]SGGVV[hArg]KNFVPTDVGPFAF-NH2 (lactam 3-7; also: PEG-conjugated, in most cases at Lys25) [PEG-peptide of SEQ ID NO 906], the “PEG-peptide IC50” value was 2.29 nM.

B1: SEQ ID NO 909 (peptide)
peptide: Ac-WVEH[hArg]LKGLLS[Cit]SG[Aze]VV[hArg]KNFVPTDVGPFAF-NH2
modifications: lactam 3-7
SMILES: CC(=O)N[C@@H](Cc1c[nH]c2ccccc12)C(=O)N[C@H](C(=O)N[C@H]1CCC(=O)NCCCC[C@@H](C(=O)NCC(=O)N[C@@H](CC(C)C)C(=O)N[C@@H](CC(C)C)C(=O)N[C@@H](CO)C(=O)N[C@@H](CCCNC(N)=O)C(=O)N[C@@H](CO)C(=O)NCC(=O)N2CC[C@H]2C(=O)N[C@H](C(=O)N[C@H](C(=O)N[C@@H](CCCCNC(=N)N)C(=O)N[C@@H](CCCCN)C(=O)N[C@@H](CC(N)=O)C(=O)N[C@@H](Cc2ccccc2)C(=O)N[C@H](C(=O)N2CCC[C@H]2C(=O)N[C@H](C(=O)N[C@@H](CC(=O)O)C(=O)N[C@H](C(=O)NCC(=O)N2CCC[C@H]2C(=O)N[C@@H](Cc2ccccc2)C(=O)N[C@@H](C)C(=O)N[C@@H](Cc2ccccc2)C(N)=O)C(C)C)[C@@H](C)O)C(C)C)C(C)C)C(C)C)NC(=O)[C@H](CC(C)C)NC(=O)[C@H](CCCCNC(=N)N)NC(=O)[C@H](Cc2c[nH]cn2)NC1=O)C(C)C
For B1, the “Peptide IC50” value was found to be 3.45 nM.

B2: SEQ ID NO 908 (peptide)
peptide: Ac-WVEH[hArg]LKGLLS[Cit]SGGVV[hArg]KNFVPTDVGPFAF-NH2
modifications: lactam 3-7
SMILES: CC(=O)N[C@@H](Cc1c[nH]c2ccccc12)C(=O)N[C@H](C(=O)N[C@H]1CCC(=O)NCCCC[C@@H](C(=O)NCC(=O)N[C@@H](CC(C)C)C(=O)N[C@@H](CC(C)C)C(=O)N[C@@H](CO)C(=O)N[C@@H](CCCNC(N)=O)C(=O)N[C@@H](CO)C(=O)NCC(=O)NCC(=O)N[C@H](C(=O)N[C@H](C(=O)N[C@@H](CCCCNC(=N)N)C(=O)N[C@@H](CCCCN)C(=O)N[C@@H](CC(N)=O)C(=O)N[C@@H](Cc2ccccc2)C(=O)N[C@H](C(=O)N2CCC[C@H]2C(=O)N[C@H](C(=O)N[C@@H](CC(=O)O)C(=O)N[C@H](C(=O)NCC(=O)N2CCC[C@H]2C(=O)N[C@@H](Cc2ccccc2)C(=O)N[C@@H](C)C(=O)N[C@@H](Cc2ccccc2)C(N)=O)C(C)C)[C@@H](C)O)C(C)C)C(C)C)C(C)C)NC(=O)[C@H](CC(C)C)NC(=O)[C@H](CCCCNC(=N)N)NC(=O)[C@H](Cc2c[nH]cn2)NC1=O)C(C)C
Take B2: the “Peptide IC50” value stood at 1.28 nM.
For Ac-WVEHRLKGLLS[hArg]SGGVV[hArg]KNFVPTDVGPFAF-NH2 (lactam 3-7; also: PEG-conjugated, in most cases at Lys25) [PEG-peptide of SEQ ID NO 905], the “PEG-peptide IC50” value came out at 3.7 nM.
On to Ac-WVEH[Cit]LKGLLS[Cit]SGGVV[hArg]KNFVPTDVGPFAF-NH2 (lactam 3-7; also: PEG-conjugated, in most cases at Lys25) [PEG-peptide of SEQ ID NO 907], for which the “PEG-peptide IC50” value was 4.87 nM.
Take Ac-WVEHRLKGLLS[Cit]SGGVV[hArg]KNFVPTDVGPFAF-NH2 (lactam 3-7) [SEQ ID NO 906]: the “Peptide IC50” value was determined as 1.15 nM.

These data come from patent US20080020978A1 (Amgen, published 2008).
